Laboratory results published in publication PMC5526462 (Biochemistry, 2017).
Like-named read-outs stand apart in the source and are kept apart here. Each block holds one molecule with its values, some of them ahead of it.

B2: Methylobacterium extorquens PqqD (MePqqD), truncation of the natural MePqqCD fusion (domain or fragment)
chain: MEPTAFSGSDVPRLPRGVRLRFDEVRNKHVLLAPERTFDLDDNAVAVLKLVDGRNTVSQIAQILGQTYDADPAIIEADILPMLAGLAQKRVLER

Experiments:
[1] = biological target: PqqE (Methylorubrum extorquens) (UniProt B7KXC6); conditions: cited from earlier work
[2] = biological target: PqqE (Methylorubrum extorquens) (UniProt B7KXC6); conditions: cited from earlier work; remark: listed apart in the source
[3] = biological target: PqqD (Methylorubrum extorquens) (UniProt Q49148); conditions: cited from earlier work
PqqD (Methylorubrum extorquens), sequence (Q49148 whole entry): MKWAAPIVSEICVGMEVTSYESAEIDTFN

[4] = biological target: T1, Methylobacterium extorquens PqqE (His6-MePqqE) (Methylobacterium extorquens, UniProt P71517 1-384); assay: NMR titration
T1 sequence (looked up): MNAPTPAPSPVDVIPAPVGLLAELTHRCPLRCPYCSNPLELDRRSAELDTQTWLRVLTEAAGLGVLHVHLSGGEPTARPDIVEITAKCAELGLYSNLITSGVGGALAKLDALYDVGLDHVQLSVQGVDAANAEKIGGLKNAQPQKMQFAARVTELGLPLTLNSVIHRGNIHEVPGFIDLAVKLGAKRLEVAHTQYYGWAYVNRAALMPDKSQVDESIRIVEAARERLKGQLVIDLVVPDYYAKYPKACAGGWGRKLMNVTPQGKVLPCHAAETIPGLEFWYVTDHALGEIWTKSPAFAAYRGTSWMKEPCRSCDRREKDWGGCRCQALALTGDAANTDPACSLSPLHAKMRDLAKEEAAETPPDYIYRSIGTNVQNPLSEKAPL

[5] = biological target: B2; assay: NMR titration

Molecule: PqqD-PqqA complex (from UniProt Q49148)
- Kd [1]: 5 µM

Molecule: PqqD (from UniProt Q49148)
- Kd [2]: 12 µM

Molecule: PqqA (from UniProt Q49148)
- Kd [3]: 0.2 µM

- binding result [4]: binds
B1: MePqqD + MePqqA binary complex (complex, Methylobacterium extorquens)
chain: MEPTAFSGSDVPRLPRGVRLRFDEVRNKHVLLAPERTFDLDDNAVAVLKLVDGRNTVSQIAQILGQTYDADPAIIEADILPMLAGLAQKRVLER
peptide: KWAAPIVSEISVGMEVTSYESAEIDTFN

Molecule: B2
- binding result [4]: binds

- binding result [5]: binds
B3: MePqqA precursor peptide (without the N-terminal methionine, cysteine 11 changed to serine) (peptide)
peptide: KWAAPIVSEISVGMEVTSYESAEIDTFN
